Experiment in all cases: EMSA
The target of data set [1] is T1, AtPOT1b (Arabidopsis thaliana, UniProt Q6NKX5 1-454).
T1 sequence: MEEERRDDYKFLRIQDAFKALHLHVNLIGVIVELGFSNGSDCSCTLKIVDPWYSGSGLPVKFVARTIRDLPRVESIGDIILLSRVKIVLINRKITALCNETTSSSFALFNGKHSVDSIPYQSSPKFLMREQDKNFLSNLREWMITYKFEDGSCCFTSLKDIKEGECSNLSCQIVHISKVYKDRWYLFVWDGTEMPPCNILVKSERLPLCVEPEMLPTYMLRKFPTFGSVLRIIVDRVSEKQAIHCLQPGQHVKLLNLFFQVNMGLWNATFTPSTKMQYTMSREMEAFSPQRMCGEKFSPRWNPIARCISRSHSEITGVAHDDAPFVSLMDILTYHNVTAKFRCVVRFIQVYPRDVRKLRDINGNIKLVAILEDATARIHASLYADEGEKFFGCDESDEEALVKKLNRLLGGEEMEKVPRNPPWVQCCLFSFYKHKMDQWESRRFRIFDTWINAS

Data set [2] has as its target T2, AtPOT1a (Arabidopsis thaliana, UniProt Q56Y52 1-467).
T2 sequence: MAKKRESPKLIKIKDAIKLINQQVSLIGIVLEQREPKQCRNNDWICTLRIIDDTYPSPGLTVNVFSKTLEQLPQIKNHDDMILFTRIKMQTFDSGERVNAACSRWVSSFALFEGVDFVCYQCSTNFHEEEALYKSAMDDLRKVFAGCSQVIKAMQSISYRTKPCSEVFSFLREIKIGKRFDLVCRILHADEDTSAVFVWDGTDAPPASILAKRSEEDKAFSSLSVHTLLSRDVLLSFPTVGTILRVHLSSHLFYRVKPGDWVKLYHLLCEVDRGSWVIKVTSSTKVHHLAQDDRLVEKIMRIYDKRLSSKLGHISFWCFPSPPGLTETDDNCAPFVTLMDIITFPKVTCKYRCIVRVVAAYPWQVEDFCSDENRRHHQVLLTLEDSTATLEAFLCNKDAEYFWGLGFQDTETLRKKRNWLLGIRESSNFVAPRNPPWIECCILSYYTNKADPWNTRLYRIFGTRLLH

Data set [3] addresses T3, mPOT1a_N (OB-fold domains of mouse POT1a) (mouse, UniProt Q91WC1 1-299).
T3 sequence: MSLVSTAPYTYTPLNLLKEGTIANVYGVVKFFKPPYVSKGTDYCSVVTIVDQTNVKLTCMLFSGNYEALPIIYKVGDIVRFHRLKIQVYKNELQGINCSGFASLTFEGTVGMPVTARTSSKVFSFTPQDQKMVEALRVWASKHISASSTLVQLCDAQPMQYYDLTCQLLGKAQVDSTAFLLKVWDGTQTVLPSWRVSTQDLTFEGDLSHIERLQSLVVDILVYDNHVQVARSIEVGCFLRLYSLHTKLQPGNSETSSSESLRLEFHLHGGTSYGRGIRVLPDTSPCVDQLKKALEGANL

For data set [4], the target named is T4, BoPOT1a (Brassica oleracea (cauliflower, …, UniProt B7T1J7 1-456)).
T4 sequence: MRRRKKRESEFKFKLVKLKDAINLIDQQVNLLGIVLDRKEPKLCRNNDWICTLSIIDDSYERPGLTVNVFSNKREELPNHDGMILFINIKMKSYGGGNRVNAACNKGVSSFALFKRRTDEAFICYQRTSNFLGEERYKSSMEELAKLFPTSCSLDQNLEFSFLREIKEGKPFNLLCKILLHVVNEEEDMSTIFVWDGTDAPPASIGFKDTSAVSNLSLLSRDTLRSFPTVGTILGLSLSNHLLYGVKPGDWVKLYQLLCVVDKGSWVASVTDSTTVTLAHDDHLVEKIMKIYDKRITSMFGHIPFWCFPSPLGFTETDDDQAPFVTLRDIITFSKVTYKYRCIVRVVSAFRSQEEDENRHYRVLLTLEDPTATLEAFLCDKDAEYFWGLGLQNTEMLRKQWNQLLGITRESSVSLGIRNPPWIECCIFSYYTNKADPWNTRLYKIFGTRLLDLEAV

The target of data set [5] is T5, AlPOT1b (Arabidopsis lyrata, UniProt B7T1J2 1-450).
T5 sequence: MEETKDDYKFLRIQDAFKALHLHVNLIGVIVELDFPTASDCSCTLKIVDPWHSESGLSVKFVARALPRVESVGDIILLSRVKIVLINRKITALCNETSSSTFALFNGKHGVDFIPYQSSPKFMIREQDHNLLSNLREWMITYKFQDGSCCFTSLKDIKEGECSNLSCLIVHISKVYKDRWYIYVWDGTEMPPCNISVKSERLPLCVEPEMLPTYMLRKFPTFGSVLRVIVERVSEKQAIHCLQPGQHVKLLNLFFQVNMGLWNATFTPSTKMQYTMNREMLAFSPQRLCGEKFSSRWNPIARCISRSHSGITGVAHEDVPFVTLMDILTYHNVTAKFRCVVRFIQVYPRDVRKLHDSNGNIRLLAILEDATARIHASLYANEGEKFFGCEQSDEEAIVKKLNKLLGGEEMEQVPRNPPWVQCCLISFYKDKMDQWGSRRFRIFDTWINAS

For data set [6], the target named is T6, AlPOT1a (Arabidopsis lyrata, UniProt B7T1J1 1-467).
T6 sequence: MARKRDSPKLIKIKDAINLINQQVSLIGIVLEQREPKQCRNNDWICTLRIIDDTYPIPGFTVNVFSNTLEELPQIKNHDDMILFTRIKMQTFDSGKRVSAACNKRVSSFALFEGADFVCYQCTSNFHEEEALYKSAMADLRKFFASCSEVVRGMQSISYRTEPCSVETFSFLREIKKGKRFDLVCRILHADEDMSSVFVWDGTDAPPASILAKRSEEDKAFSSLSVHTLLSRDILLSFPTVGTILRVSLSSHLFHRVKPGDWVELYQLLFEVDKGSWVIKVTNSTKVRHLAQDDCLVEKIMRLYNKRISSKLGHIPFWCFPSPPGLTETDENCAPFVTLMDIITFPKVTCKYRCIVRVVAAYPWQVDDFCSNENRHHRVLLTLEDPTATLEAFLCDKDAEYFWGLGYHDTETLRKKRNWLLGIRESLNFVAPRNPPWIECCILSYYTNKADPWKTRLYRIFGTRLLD

Data set [7] concerns the target T7, BoPOT1b (Brassica oleracea (cauliflower, …, UniProt B7T1J8 1-450)).
T7 sequence: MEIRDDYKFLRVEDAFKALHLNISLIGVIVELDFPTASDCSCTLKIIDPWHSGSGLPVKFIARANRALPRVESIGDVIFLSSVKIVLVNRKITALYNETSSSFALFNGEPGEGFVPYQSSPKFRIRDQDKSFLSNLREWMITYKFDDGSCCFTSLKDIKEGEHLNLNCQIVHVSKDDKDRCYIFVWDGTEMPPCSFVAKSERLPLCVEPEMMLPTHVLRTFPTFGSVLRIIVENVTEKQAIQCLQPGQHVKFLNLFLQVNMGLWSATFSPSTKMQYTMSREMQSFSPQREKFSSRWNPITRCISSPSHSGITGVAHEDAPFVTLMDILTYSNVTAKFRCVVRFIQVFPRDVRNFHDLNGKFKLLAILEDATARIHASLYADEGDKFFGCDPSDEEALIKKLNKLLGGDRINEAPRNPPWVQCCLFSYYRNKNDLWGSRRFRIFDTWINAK

In data set [8] the target is T8, AtPOT1b_N (Arabidopsis thaliana, UniProt Q6NKX5 1-300).
T8 sequence: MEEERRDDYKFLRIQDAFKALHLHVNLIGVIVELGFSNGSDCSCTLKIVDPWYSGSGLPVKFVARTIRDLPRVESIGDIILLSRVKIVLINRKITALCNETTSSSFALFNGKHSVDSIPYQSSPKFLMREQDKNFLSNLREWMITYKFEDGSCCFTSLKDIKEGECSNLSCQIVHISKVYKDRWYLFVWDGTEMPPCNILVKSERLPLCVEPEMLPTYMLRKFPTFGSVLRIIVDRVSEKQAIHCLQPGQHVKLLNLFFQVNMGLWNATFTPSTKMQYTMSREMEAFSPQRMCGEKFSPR

In data set [9] the target is T9, AtPOT1a_N (Arabidopsis thaliana, UniProt Q56Y52 1-300).
T9 sequence: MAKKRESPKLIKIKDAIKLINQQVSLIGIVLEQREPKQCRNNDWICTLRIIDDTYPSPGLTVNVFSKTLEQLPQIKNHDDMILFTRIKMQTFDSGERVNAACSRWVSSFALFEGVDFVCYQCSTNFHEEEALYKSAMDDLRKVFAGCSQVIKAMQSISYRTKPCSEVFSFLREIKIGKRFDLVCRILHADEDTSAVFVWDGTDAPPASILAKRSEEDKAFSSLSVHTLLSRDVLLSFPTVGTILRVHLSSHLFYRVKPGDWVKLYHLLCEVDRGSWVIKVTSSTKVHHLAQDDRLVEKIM

Consider four molecules from article PMC5880214.

As for CCCTAAACCCTAAACCCTAAACCCTAAACCCTAAA (ssDNA) [C-rich plant telomere repeat, five copies], the binding result in [1] and in [2] was “no binding” each time.
On to GGTTAGGGTTAG (ssDNA) [(GGTTAG)2 vertebrate telomere repeat], for which the binding result in [3] was “binds”.
On to TTTAGGGTTTAGGG (ssDNA) [(TTTAGGG)2], for which the binding result in [1], in [4], in data set [5], in data set [6], in data set [7] and in data set [8] was “no binding” each time. In addition, the binding result in [9] and in [2] was “no binding” throughout.
As for TTTAGGGTTTAGGGTTTAGGGTTTAGGGTTTAGGG (ssDNA) [(TTTAGGG)5], the binding result in [1], in data set [4], in data set [5], in [6], in data set [7] and in data set [8] was “no binding” in each case. For the same molecule, the binding result in data set [9] and in data set [2] was “no binding” each time.
